{"source": "patent US20180289842A1", "target": "albumin", "assay": "albumin binding constant (K), same method as the earlier dye-albumin study; method not described", "data": [{"substance": "LS838: Cypate-Cyclo(DCys-Gly-Arg-Asp-Ser-Pro-Cys)-Tyr-OH (peptide)", "values": [{"measurement": "Ka", "result": 86000, "unit": "M⁻¹"}]}]}
